This is an account of results in patent US10273291.

The target of this assay is ΔRSC3. As to the kind of experiment: ELISA, antigen coated, IgG1. Background: In an ELISA, binding on a coated surface is turned into a signal by an enzyme label.

For the substance VRC-PG04 (antibody), the fold less binding than to RSC3 was found to be 100 fold.
For VRC-PG04b (antibody) the value was 100 fold.
